Measured values reported in patent US20230192845A1 (BLINK BIOMEDICAL, published 2023).

Biological target: T1, hCD226-His tagged protein transiently expressed on CHO cells (human, UniProt Q15762 19-336)
T1 construct: whole, on cells; also called DNAM-1
T1 sequence (looked up): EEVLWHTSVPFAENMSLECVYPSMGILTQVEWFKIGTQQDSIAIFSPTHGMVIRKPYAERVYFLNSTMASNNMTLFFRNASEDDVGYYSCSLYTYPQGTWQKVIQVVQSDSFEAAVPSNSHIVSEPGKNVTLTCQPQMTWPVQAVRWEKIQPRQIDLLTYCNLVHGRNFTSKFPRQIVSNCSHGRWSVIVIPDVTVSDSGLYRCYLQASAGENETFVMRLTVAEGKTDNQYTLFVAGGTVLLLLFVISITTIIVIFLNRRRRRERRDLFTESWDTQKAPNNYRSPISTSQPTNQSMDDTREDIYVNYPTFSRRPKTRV
Test: FRET by flow cytometry on transfected CHO cells

binding result: binds
B1: hTIGIT-Myc tagged protein transiently expressed on CHO cells (receptor, human, UniProt Q495A1 22-244, looked up)
chain: MMTGTIETTGNISAEKGGSIILQCHLSSTTAQVTQVNWEQQDQLLAICNADLGWHISPSFKDRVAPGPGLGLTLQSLTVNDTGEYFCIYHTYPDGTYTGRIFLEVLESSVAEHGARFQIPLLGAMAATLVVICTAVIVVVALTRKKKALRIHSVEGDLRRKSAGQEEWSPSAPSPPGSCVQAEAAPAGLCGEQRGEDCAELHDYFNVLSYRSLGNCSFFTETG
notes: whole, on cells
